Measurements reported in patent publication US20190127434.

B1: Recombinant Human UCH-L5/UCH37 (protein)
chain: MTGNAGEWCLMESDPGVFTELIKGFGCRGAQVEEIWSLEPENFEKLKPVHGLIFLFKWQPGEEPAGSVVQDSRLDTIFFAKQVINNACATQAIVSVLLNCTHQDVHLGETLSEFKEFSQSFDAAMKGLALSNSDVIRQVHNSFARQQMFEFDTKTSAKEEDAFHFVSYVPVNGRLYELDGLREGPIDLGACNQDDWISAVRPVIEKRIQKYSEGEIRFNLMAIVSDRKMIYEQKIAELQRQLAEEEPMDTDQGNSMLSAIQSEVAKNQMLIEEEVQKLKRYKIENIRRKHNYLPFIMELLKTLAEHQQLIPLVEKAKEKQNAKKAQETK
B2: Recombinant Human USP2 Catalytic Domain (protein)
chain: NSKSAQGLAGLRNLGNTCFMNSILQCLSNTRELRDYCLQRLYMRDLHHGSNAHTALVEEFAKLIQTIWTSSPNDVVSPSEFKTQIQRYAPRFVGYNQQDAQEFLRFLLDGLHNEVNRVTLRPKSNPENLDHLPDDEKGRQMWRKYLEREDSRIGDLFVGQLKSSLTCTDCGYCSTVFDPFWDLSLPIAKRGYPEVTLMDCMRLFTKEDVLDGDEKPTCCRCRGRKRCIKKFSIQRFPKILVLHLKRFSESRIRTSKLTTFVNFPLRDLDLREFASENTNHAVYNLYAVSNHSGTTMGGHYTAYCRSPGTGEWHTFNDSSVTPMSSSQVRTSDAYLLFYELASPPSRM
B3: UCH-L3, human recombinant (protein)
chain: MEGQRWLPLEANPEVTNQFLKQLGLHPNWQFVDVYGMDPELLSMVPRPVCAVLLLFPITEKYEVFRTEEEEKIKSQGQDVTSSVYFMKQTISNACGTIGLIHAIANNKDKMHFESGSTLKKFLEESVSMSPEERARYLENYDAIRVTHETSAHEGQTEAPSIDEKVDLHFIALVHVDGHLYELDGRKPFPINHGETSDETLLEDAIEVCKKFMERDPDELRFNAIALSAA

Molecular target: K6UbKMRC011

| Protein | cleavage by ubiquitin cleavage enzymes, SDS-PAGE analysis (10 mg/L enzyme, 37 C, 12 hours) |
| --- | --- |
| B1 | the refolded K6UbKMRC011 was cleaved by the ubiquitin cleavage enzymes shown in Table 2 and correctly separated into K6Ub and KMRC011 |
| B2 | the refolded K6UbKMRC011 was cleaved by the ubiquitin cleavage enzymes shown in Table 2 and correctly separated into K6Ub and KMRC011 |
| B3 | the refolded K6UbKMRC011 was cleaved by the ubiquitin cleavage enzymes shown in Table 2 and correctly separated into K6Ub and KMRC011 |
